Patent US7658917 (PRAECIS PHARMACEUTICALS, dated 2010)
Numbered stars: 1 amine (or outer) side, 2 acyl side, 3 side chain; on linkers, the order of the positions; unused ones are H or OH. Square brackets hold non-standard residues; d marks the D form. Ends that are not written are not given here. * marks the point of attachment. Cholyl = C[C@H](CCC(=O)*)[C@H]1CC[C@H]2[C@@H]3[C@H](O)C[C@@H]4C[C@H](O)CC[C@]4(C)[C@H]3C[C@H](O)[C@]12C; Deoxycholoyl = C[C@H](CCC(=O)*)[C@H]1CC[C@H]2[C@@H]3CC[C@@H]4C[C@H](O)CC[C@]4(C)[C@H]3C[C@H](O)[C@]12C; Lithocholoyl = C[C@H](CCC(=O)*)[C@H]1CC[C@H]2[C@@H]3CC[C@@H]4C[C@H](O)CC[C@]4(C)[C@H]3CC[C@]12C; Adp = aminoethyldibenzofuranylpropanoic acid, O=C(CCc1cccc2c1oc1c(CCN[*:1])cccc12)[*:2]; iminobiotinyl = N=C1N[C@H]2[C@H](CS[C@H]2CCCCC(=O)*)N1; Tyr(3-I) = N[C@@H](Cc1ccc(O)c(I)c1)C(=O)O; FICO = 5-(and 6-)-carboxyfluoresceinyl; NMeL = CN[C@@H](CC(C)C)C(=O)O; NMeV = CN[C@H](C(=O)O)C(C)C; NANA = N-acetyl neuraminyl; Boc = CC(C)(C)OC(=O)*

target: natural β-amyloid peptide β-AP1-40 (human); experiment: cell-based or functional assay
Sequence (peptide, as listed by the source): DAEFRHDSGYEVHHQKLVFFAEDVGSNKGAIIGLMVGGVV

Binder | % Inucl'n; nucleation assay; 100 mole % | ΔLag; nucleation assay; 100 mole % | % Iext'n; seeded extension assay; 25 mole %
Cholyl-Gly-Phe-Phe-OH (SMILES C[C@H](CCC(=O)NCC(=O)N[C@@H](Cc1ccccc1)C(=O)N[C@@H](Cc1ccccc1)C(=O)O)[C@H]1CC[C@H]2[C@@H]3[C@H](O)C[C@@H]4C[C@H](O)CC[C@]4(C)[C@H]3C[C@H](O)[C@]12C) [CA-GFF-oh] | 0% | 1 ratio | 
Cholyl-LVFAA-OH (SMILES CC(C)C[C@H](NC(=O)CC[C@@H](C)[C@H]1CC[C@H]2[C@@H]3[C@H](O)C[C@@H]4C[C@H](O)CC[C@]4(C)[C@H]3C[C@H](O)[C@]12C)C(=O)N[C@H](C(=O)N[C@@H](Cc1ccccc1)C(=O)N[C@@H](C)C(=O)N[C@@H](C)C(=O)O)C(C)C) [CA-LVFAA-oh] | 40% | 1.6 ratio | 
Cholyl-[dL][dV][dF][dF][dA]-OH [CA-LVFFA-oh (all D amino acids)] | 27% | 2.8 ratio | 
Cholyl-FFVL-OH (SMILES CC(C)C[C@H](NC(=O)[C@@H](NC(=O)[C@H](Cc1ccccc1)NC(=O)[C@H](Cc1ccccc1)NC(=O)CC[C@@H](C)[C@H]1CC[C@H]2[C@@H]3[C@H](O)C[C@@H]4C[C@H](O)CC[C@]4(C)[C@H]3C[C@H](O)[C@]12C)C(C)C)C(=O)O) [CA-FFVL-oh] | 33% | 4.1 ratio | 75%
Deoxycholoyl-LVFFA-OH [DeoxyCA-LVFFA-oh] | -114% | 3 ratio | 82%
Cholyl-AVAFA-OH (SMILES CC(C)[C@H](NC(=O)[C@H](C)NC(=O)CC[C@@H](C)[C@H]1CC[C@H]2[C@@H]3[C@H](O)C[C@@H]4C[C@H](O)CC[C@]4(C)[C@H]3C[C@H](O)[C@]12C)C(=O)N[C@@H](C)C(=O)N[C@@H](Cc1ccccc1)C(=O)N[C@@H](C)C(=O)O) [CA-AVAFA-oh] | -15% | 1 ratio | 
Lithocholoyl-LVFFA-OH [LithoCA-LVFFA-oh] | -229% | 2.8 ratio | 0%
Cholyl-Phe-Phe-Val-OH (SMILES CC(C)[C@H](NC(=O)[C@H](Cc1ccccc1)NC(=O)[C@H](Cc1ccccc1)NC(=O)CC[C@@H](C)[C@H]1CC[C@H]2[C@@H]3[C@H](O)C[C@@H]4C[C@H](O)CC[C@]4(C)[C@H]3C[C@H](O)[C@]12C)C(=O)O) [CA-FFV-oh] | -33% | 2.2 ratio | 7%
Cholyl-LVF[Tyr(3-I)]A-OH [CA-LVF(IY)A-oh] | 95% | > 5 ratio | 
H-DDIII[NMeV]DLL[Adp]HQKLVFF-OH (SMILES CC[C@H](C)[C@H](NC(=O)[C@H](CC(=O)O)NC(=O)[C@@H](N)CC(=O)O)C(=O)N[C@H](C(=O)N[C@H](C(=O)N(C)[C@H](C(=O)N[C@@H](CC(=O)O)C(=O)N[C@@H](CC(C)C)C(=O)N[C@@H](CC(C)C)C(=O)NCCc1cccc2c1oc1c(CCC(=O)N[C@@H](Cc3c[nH]cn3)C(=O)N[C@@H](CCC(N)=O)C(=O)N[C@@H](CCCCN)C(=O)N[C@@H](CC(C)C)C(=O)N[C@H](C(=O)N[C@@H](Cc3ccccc3)C(=O)N[C@@H](Cc3ccccc3)C(=O)O)C(C)C)cccc12)C(C)C)[C@@H](C)CC)[C@@H](C)CC) [h-DDIII(N-Me-Val)DLL(Adp)-HQKLVFF-oh] | -75% | 1.4 ratio | 0%
H-DDII[NMeL]VEH[Adp]LKLVFF-OH (SMILES CC[C@H](C)[C@H](NC(=O)[C@H](CC(=O)O)NC(=O)[C@@H](N)CC(=O)O)C(=O)N[C@H](C(=O)N(C)[C@@H](CC(C)C)C(=O)N[C@H](C(=O)N[C@@H](CCC(=O)O)C(=O)N[C@@H](Cc1c[nH]cn1)C(=O)NCCc1cccc2c1oc1c(CCC(=O)N[C@@H](CC(C)C)C(=O)N[C@@H](CCCCN)C(=O)N[C@@H](CC(C)C)C(=O)N[C@H](C(=O)N[C@@H](Cc3ccccc3)C(=O)N[C@@H](Cc3ccccc3)C(=O)O)C(C)C)cccc12)C(C)C)[C@@H](C)CC) [h-DDII(N-Me-Leu)VEH(Adp)-LKLVFF-oh] | -29% | 1.8 ratio | 7%
Boc-LVFFA-OH [t-Boc-LVFFA-oh] | -5% | 3 ratio | 

target: natural β-amyloid peptide β-AP1-40 (human); experiment: cell-based or functional assay; remark: another data set of the same source

Binder | % Inhibition of Plateau; nucleation assay; 100 mole % | Fold Increase in Lag Time; nucleation assay; 100 mole %
Cholyl-KLVF-NH2 (SMILES CC(C)C[C@H](NC(=O)[C@H](CCCCN)NC(=O)CC[C@@H](C)[C@H]1CC[C@H]2[C@@H]3[C@H](O)C[C@@H]4C[C@H](O)CC[C@]4(C)[C@H]3C[C@H](O)[C@]12C)C(=O)N[C@H](C(=O)N[C@@H](Cc1ccccc1)C(N)=O)C(C)C) [cholyl-Aβ16-19-amide (PPI-321 as printed in Table IV)] | ~0% | 1.2 fold

target: natural β-amyloid peptide β-AP1-40 (human); experiment: cell-based or functional assay; remark: another data set of the same source

Binder | % Inhibition of Plateau; nucleation assay; 100 mole % | Fold Increase in Lag Time; nucleation assay; 100 mole %
{NANA}-DAEFRHDSGYEVHHQ [NANA-Aβ1-15] | ~0% | ~1 fold
iminobiotinyl-DAEFRHDSGYEVHHQ [iminobiotinyl-Aβ1-15] | ~0% | 1.2 fold
{FICO}-DAEFRHDSGYEVHHQ [FICO-Aβ1-15] | 30% | ~1 fold
{NANA}-AEDVGSNKGAIIGLM [NANA-Aβ21-35] | 53% | ~1 fold
{FICO}-KLVFFAEDVGSNKGA [FICO-Aβ16-30] | 59% | 1.6 fold
iminobiotinyl-HDSGYEVHHQKLVFF [iminobiotinyl-Aβ6-20] | 44% | 1.6 fold
Cholyl-KLVFFAEDVGSNKGA [cholyl-Aβ16-30] | 100% | > 4.5 fold
Cholyl-AEDVGSNKGAIIGLM [cholyl-Aβ21-35] | 51% | 1.6 fold
{FICO}-AEDVGSNKGAIIGLM [FICO-Aβ21-35] | 25% | 1.2 fold
iminobiotinyl-SNKGAIIGLMVGGVV [iminobiotinyl-Aβ26-40] | ~0% | 2.3 fold
iminobiotinyl-KLVFFAEDVGSNKGA [iminobiotinyl-Aβ16-30] | 55% | 1.2 fold
{NANA}-KLVFFAEDVGSNKGA [NANA-Aβ16-30] | ~0% | ~1 fold
{NANA}-SNKGAIIGLMVGGVV [NANA-Aβ26-40] | ~0% | 1.3 fold
Cholyl-DAEFRHDSGYEVHHQ [cholyl-Aβ1-15] | 100% | > 4.5 fold
Cholyl-SNKGAIIGLMVGGVV [cholyl-Aβ26-40] | 87% | > 4.5 fold
Cholyl-EVHHQKLVFFAEDVG [cholyl-Aβ11-25] | ~0% | 1.5 fold
iminobiotinyl-AEDVGSNKGAIIGLM [iminobiotinyl-Aβ21-35] | 66% | ~1 fold
{NANA}-HDSGYEVHHQKLVFF [NANA-Aβ6-20] | 64% | 1.3 fold
iminobiotinyl-EVHHQKLVFFAEDVG [iminobiotinyl-Aβ11-25] | 40% | 1.2 fold
{FICO}-HDSGYEVHHQKLVFF [FICO-Aβ6-20] | ~0% | 1.9 fold
